Measurements from paper PMC4650419 (Cell Research, 2015).
Numbering of substitutions follows the chain as printed.

B1: mouse monoclonal antibody 2E6 (IgG1) (antibody, V domains shown)
VH: QVQLKGSGPGLVAPSQSLSITCTVSGFSLTGYGVNWVRQPPGKGLEWLGMIWGDGSTDYNSALKSRLSISKDNSKSQVFLKMNSLQTDDTARYYCARVGDYGDYFDYWGQGTTLTVSS
VL: DIQMTQSPASLSASVGETVTITCRASENIYSYLAWYQQKQGKSPQLLVYNAKTLAEGVPSRFSGSGSGTQFSLKINSLQPEDFGSYYCQHHYGTPWFGGGTKLEIK
B2: mouse monoclonal antibody 4C2 (IgG1) (antibody, V domains shown)
VH: DVKLVESGGGLVKPGGSLKLSCAASGFTFSSYTMSWVRQTPEKRLEWVATISSGGSYTYYPDSVKGRFTISRDNAKNTLYLQMSSLKSEDTAMYYCTRDGNDYDYWGQGTTLTVSS
VL: DIQMTQTTSSLSASLGDRVTISCRASQDISNYLNWYQQKPDGTVKLLIYYTSRLHSGVPSRFSGSGSGTDYSLTISNLEQEDIATYFCQQGNTLPRTFGGGTKLEIK
B3: humanized 4C2 (4C2h), full-length antibody (antibody, V domains shown)
VH: B2 VH with D1Q, K3Q, V5Q, E42D, T97A, T111M, L112V
VL: DIQLTQSPSSLSASIGDRVTITCQASQDISNYLNWYQQRPGQAPKLLIYYTSRLHSGVPSRFSGRGSGTSFTIAINSFQAEDIGTYFCQQGNTLPRTFGGGTRVEIK

These binders were tested against MERS-CoV spike receptor-binding domain (spike residues 367-606), hexa-His tagged (MERS-CoV, isolate EMC/2012 (GenBank …)) (assay: SPR).

Row | Binder | Kd
1 | B1 | 60.3 nM
2 | B2 | 162 nM
3 | B3 | ~217 nM
